Measured values as given in patent publication US20250382362A1 (UNIVERSIT TSKLINIKUM REGENSBURG, published 2025).
Changes are numbered by the printed parent chain.

B1: Chimeric P8C11 (antibody, V domains shown)
VH: QVQLQQSGAEMVRPGVSVKIACKGSGFTFTDYALHWVKQSHAKSLEWIGLISTYYGDTTYNQRFKGKATMTVDKSSSTAYMELARLTSEDSAIYYCVITTVAGTDAMDYWGQGTSVTVSS
VL: DIQMNQSPSSLSASLGDTITITCHASQNINVWLSWYQQKPGNIPKLLIYKASNLHTGVPSRFSGSGSGTGFTLTISSLQPEDIATYYCQQGYSYPYTFGGGTKLEIK
B2: HC1 × LC1 (antibody, V domains shown)
VH: QVQLVQSGAEVKKPGASVKVSCKASGFTFTDYALHWVRQAPGQRLEWMGLISTYYGDTTYNQRFKGRVTITRDTSASTAYMELSSLRSEDTAVYYCVITTVAGTDAMDYWGQGTLVTVSS
VL: B1 VL with N5T, L11V, L15V, T18R, I19V, N42K, I43A, G70D, I83F
B3: HC1 × LC3 (antibody, V domains shown)
VH: B2 VH
VL: B1 VL with N5T, L15V, T18R, I19V, N42K, I43V, G70D, I83V
B4: HC2 × LC2 (antibody, V domains shown)
VH: QVQLVQSGSELKKPGASVKVSCKASGFTFTDYALHWVRQAPGQGLEWMGLISTYYGDTTYNQRFKGRFVFSLDTSVSTAYLQISSLKAEDTAVYYCVITTVAGTDAMDYWGQGTLVTVSS
VL: B1 VL with N5T, L15V, T18R, I19V, N42K, I43A, G70D, L73F
B5: HC3 × LC1 (antibody, V domains shown)
VH: B2 VH with V11M, S21A, A24G, V93I
VL: B1 VL with N5T, L11V, L15V, T18R, I19V, N42K, I43A, G70D, I83F
B6: HC3 × LC2 (antibody, V domains shown)
VH: B2 VH with V11M, S21A, A24G, V93I
VL: B1 VL with N5T, L15V, T18R, I19V, N42K, I43A, G70D, L73F
B7: HC2 × LC3 (antibody, V domains shown)
VH: B4 VH
VL: B1 VL with N5T, L15V, T18R, I19V, N42K, I43V, G70D, I83V
B8: HC3 × LC3 (antibody, V domains shown)
VH: B2 VH with V11M, S21A, A24G, V93I
VL: B1 VL with N5T, L15V, T18R, I19V, N42K, I43V, G70D, I83V
B9: HC1 × LC2 (antibody, V domains shown)
VH: B2 VH
VL: B1 VL with N5T, L15V, T18R, I19V, N42K, I43A, G70D, L73F
B10: HC2 × LC1 (antibody, V domains shown)
VH: B4 VH
VL: B1 VL with N5T, L11V, L15V, T18R, I19V, N42K, I43A, G70D, I83F
B11: MuHC × LC2 (antibody, V domains shown)
VH: B1 VH
VL: B1 VL with N5T, L15V, T18R, I19V, N42K, I43A, G70D, L73F
B12: HC3 × MuLC (antibody, V domains shown)
VH: B2 VH with V11M, S21A, A24G, V93I
VL: B1 VL
B13: HC3.MHM × muLC (antibody, V domains shown)
VH: B1 VH with K38R, S40A, H41P, A42G, K43Q, S44R, I48M
VL: B1 VL
B14: HC3.HMM × muLC (antibody, V domains shown)
VH: B1 VH with Q5V, V12K, R13K, V16A, I20V
VL: B1 VL
B15: HC3.MMH × muLC (antibody, V domains shown)
VH: QVQLQQSGAEMVRPGVSVKIACKGSGFTFTDYALHWVKQSHAKSLEWIGLISTYYGDTTYNQRFKGRVTITRDTSASTAYMELSSLRSEDTAIYYCVITTVAGTDAMDYWGQGTLVTVSS
VL: B1 VL
B16: HC4 × LC2 (antibody, V domains shown)
VH: B2 VH with V11M, S21A, A24G, R67K, V68A, I70M, R72V, T74K, A76S, V93I
VL: B1 VL with N5T, L15V, T18R, I19V, N42K, I43A, G70D, L73F
B17: HC5 × LC2 (antibody, V domains shown)
VH: B2 VH with V11M, S21A, A24G, S84A, S85R, R87T, T91S, V93I, L115S
VL: B1 VL with N5T, L15V, T18R, I19V, N42K, I43A, G70D, L73F
B18: HC6 × LC2 (antibody, V domains shown)
VH: B2 VH with V11M, S21A, A24G, I70M, R72V, T74K, A76S, V93I
VL: B1 VL with N5T, L15V, T18R, I19V, N42K, I43A, G70D, L73F
B19: HC7 × LC2 (antibody, V domains shown)
VH: B2 VH with S21A, A24G, I70M, R72V, T74K, A76S
VL: B1 VL with N5T, L15V, T18R, I19V, N42K, I43A, G70D, L73F
B20: HC9 × LC2 (antibody, V domains shown)
VH: B2 VH with V11M, S21A, A24G, I70M, R72V, T74K, V93I
VL: B1 VL with N5T, L15V, T18R, I19V, N42K, I43A, G70D, L73F
B21: HC8 × LC2 (antibody, V domains shown)
VH: B2 VH with V11M, I70M, R72V, T74K, A76S, V93I
VL: B1 VL with N5T, L15V, T18R, I19V, N42K, I43A, G70D, L73F
B22: HC10 × LC2 (antibody, V domains shown)
VH: B2 VH with V11M, S21A, A24G, R72V, T74K, V93I
VL: B1 VL with N5T, L15V, T18R, I19V, N42K, I43A, G70D, L73F
B23: HC11 × LC2 (antibody, V domains shown)
VH: B2 VH with S21A, A24G, I70M, R72A, T74K, A76T
VL: B1 VL with N5T, L15V, T18R, I19V, N42K, I43A, G70D, L73F
B24: HC13 × LC2 (antibody, V domains shown)
VH: B2 VH with S21A, A24G, I70M, R72A, T74K, A76S
VL: B1 VL with N5T, L15V, T18R, I19V, N42K, I43A, G70D, L73F
B25: HC12 × LC2 (antibody, V domains shown)
VH: B2 VH with S21A, A24G, I70M, R72V, T74K, A76T
VL: B1 VL with N5T, L15V, T18R, I19V, N42K, I43A, G70D, L73F
B26: HC14 × LC2 (antibody, V domains shown)
VH: B2 VH with A24G, I70M, R72A, T74K, A76T
VL: B1 VL with N5T, L15V, T18R, I19V, N42K, I43A, G70D, L73F
B27: HC15 × LC2 (antibody, V domains shown)
VH: B2 VH with S21A, I70M, R72A, T74K, A76T
VL: B1 VL with N5T, L15V, T18R, I19V, N42K, I43A, G70D, L73F

Each binder was assayed against T1, human IL3 (human, UniProt P08700 20-152) (assay: cell-based or functional assay).
T1 sequence: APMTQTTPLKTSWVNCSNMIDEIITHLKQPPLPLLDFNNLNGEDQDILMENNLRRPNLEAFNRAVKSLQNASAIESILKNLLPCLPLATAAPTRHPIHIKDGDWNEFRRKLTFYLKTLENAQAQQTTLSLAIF

First: B1
Second: B2
The “Inhibitory activity (block of IL-3 induced downregulation of CD131 on primary human basophils; chimeric P8C11 normalized to 100%)” value of the first is higher: 100% for the first, 2% for the second.

Compared with B3, B4 is lower in “Inhibitory activity (block of IL-3 induced downregulation of CD131 on primary human basophils; chimeric P8C11 normalized to 100%)” value: 2% for the first, 0.5% for the second.

B5 and B6 are the same in “Inhibitory activity (block of IL-3 induced downregulation of CD131 on primary human basophils; chimeric P8C11 normalized to 100%)” value: 6% for the first, 6% for the second.

First: B7
Second: B8
The “Inhibitory activity (block of IL-3 induced downregulation of CD131 on primary human basophils; chimeric P8C11 normalized to 100%)” value of the first is lower: 0.5% for the first, 6% for the second.

Compared with B9, B10 is lower in “Inhibitory activity (block of IL-3 induced downregulation of CD131 on primary human basophils; chimeric P8C11 normalized to 100%)” value: 2% for the first, 0.5% for the second.

Biological target: T1, human IL3
Experiment: cell-based or functional assay
Remark: another data set of the same source

B1 and B11 are the same in “Inhibitory activity (block of IL-3 induced downregulation of CD131 on primary human basophils; chimeric P8C11 normalized to 100%)” value: 100% for the first, 100% for the second.

B12 was tested, and the “Inhibitory activity (block of IL-3 induced downregulation of CD131 on primary human basophils; chimeric P8C11 normalized to 100%)” value was 6%.

Biological target: T1, human IL3
Experiment: cell-based or functional assay
Remark: another data set of the same source

B1 and B13 are the same in “Inhibitory activity (block of IL-3 induced downregulation of CD131 on primary human basophils; chimeric P8C11 normalized to 100%)” value: 100% for the first, 100% for the second.

First: B14
Second: B15
The “Inhibitory activity (block of IL-3 induced downregulation of CD131 on primary human basophils; chimeric P8C11 normalized to 100%)” value of the first is higher: 100% for the first, 4% for the second.

Biological target: T1, human IL3
Experiment: cell-based or functional assay
Remark: another data set of the same source

B1 and B16 are the same in “Inhibitory activity (block of IL-3 induced downregulation of CD131 on primary human basophils; chimeric P8C11 normalized to 100%)” value: 100% for the first, 100% for the second.

First: B17
Second: B18
The “Inhibitory activity (block of IL-3 induced downregulation of CD131 on primary human basophils; chimeric P8C11 normalized to 100%)” value of the first is lower: 9% for the first, 100% for the second.

Biological target: T1, human IL3
Experiment: cell-based or functional assay
Remark: another data set of the same source

B1 and B19 are the same in “Inhibitory activity (block of IL-3 induced downregulation of CD131 on primary human basophils; chimeric P8C11 normalized to 100%)” value: 100% for the first, 100% for the second.

First: B20
Second: B21
The “Inhibitory activity (block of IL-3 induced downregulation of CD131 on primary human basophils; chimeric P8C11 normalized to 100%)” value of the first is higher: 50% for the first, 25% for the second.

For B22, the “Inhibitory activity (block of IL-3 induced downregulation of CD131 on primary human basophils; chimeric P8C11 normalized to 100%)” value was 40%.

Biological target: T1, human IL3
Experiment: cell-based or functional assay
Remark: another data set of the same source

First: B1
Second: B23
The “Inhibitory activity (block of IL-3 induced downregulation of CD131 on primary human basophils; chimeric P8C11 normalized to 100%)” value of the first is higher: 100% for the first, 25% for the second.

Going from B24 to B25, the “Inhibitory activity (block of IL-3 induced downregulation of CD131 on primary human basophils; chimeric P8C11 normalized to 100%)” value rises from 25% to 100%.

Compared with B26, B27 is lower in “Inhibitory activity (block of IL-3 induced downregulation of CD131 on primary human basophils; chimeric P8C11 normalized to 100%)” value: 25% for the first, 8% for the second.
